Test results taken from the supplement of paper PMC10567573.

B1: TFE3 (parent)
chain: ELPNIKREISETEAKALLKERQKK
B2: SMG5 (parent)
chain: TNPDLIIVCAQSSQSLWNRLSVLL

Variants of: B1
Assay: protein stability index of a GFP-peptide fusion (GPS, HEK-293T) (PSI 1-6); higher = more stable
Settings: c terminus: a fixed tail appended
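Note: lentivirally expressed fusions sorted by FACS into six bins by GFP to DsRed ratio, PSI derived from sequencing read proportions per bin multiplied by bin number.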

Protein stability index, by site and new letter:
A14: K 2.75 | S 2.22 | V 2.45 | M 2.05 | N 2.64 | C 2.48 | D 2.17 | Q 2.39 | T 2 | F 2.83 | E 3.05 | Y 2.49 | I 2.46 | R 2.51 | H 3.14 | W 2.69 | L 2.54 | P 3.06 | G 3
N4: Q 2.02 | F 3.14 | S 3.23 | W 3.35 | D 2.75 | E 3.9 | Y 3.29 | P 3.76 | L 3.34 | M 2.83 | H 2.84 | R 2.34 | V 3.86 | K 2.78 | G 3.62 | I 3.85 | T 3.33 | C 2.32 | A 2.88
I5: S 4.98 | C 3.53 | R 4.4 | K 4.58 | P 4.91 | F 4.05 | T 4.7 | H 4.61 | N 4.22 | M 2.23 | Y 4.3 | G 3.46 | E 5.37 | W 3.93 | Q 4.38 | A 4.81 | L 3.34 | V 3.94 | D 5.33
E13: W 2.56 | L 3.06 | R 3.43 | H 4.65 | F 3.26 | G 4.58 | N 3.83 | C 2.74 | V 3.45 | A 4.83 | K 3.83 | Q 4.34 | D 4.12 | S 4.13 | I 3.33 | Y 3.32 | P 3.92 | T 4.34 | M 3.71
A16: H 4.11 | F 2.08 | R 3.68 | C 2.2 | M 2.63 | E 4.09 | P 4.2 | W 2.57 | T 2.96 | I 3.16 | L 2.34 | G 3.47 | N 4.09 | D 4.48 | K 3.91 | S 2.87 | Q 4.6 | V 2.79 | Y 2.37
L17: F 2.38 | H 2.12 | I 2.98 | A 2.74 | D 2.13 | C 3.09 | G 2.76 | E 2.25
K15: R 3.15 | T 2.3 | N 2.22 | M 2.41 | Q 2.46 | F 2.54 | C 3.29 | H 2.94 | G 2.34 | E 1.86 | D 1.98 | L 2.08 | S 2.75 | A 2.5 | P 4.59 | W 2.42 | I 2.21 | Y 2.31 | V 2.02
P3: Y 3.04 | D 2.89 | H 2.57 | S 3.44 | R 3.75 | Q 2.98 | L 2.02 | I 1.34 | M 1.93 | N 4.13 | G 3.5 | A 2.6 | F 2.84 | K 3.82 | W 2.43 | C 2.43 | E 3.17 | V 2.32 | T 3.57
K6: F 2.79 | E 4.11 | G 2.81 | C 2.33 | M 2.75 | S 2.5 | P 3.89 | L 2.83 | Q 2.45 | R 2.02 | Y 2.65 | I 2.04 | W 2.01 | A 2.95 | V 2.24 | D 4.36 | N 2.81 | H 2.49 | T 3.05
I9: S 4.68 | V 3.64 | H 5.21 | E 5.1 | L 2.66 | N 3.19 | Q 4.83 | T 4.49 | P 5.1 | G 4.67 | D 5.15 | K 4.95 | Y 4.34 | R 3.88 | C 3.74 | M 2.25 | A 4.71 | W 4.13 | F 4.51
T12: H 4.58 | Y 4.15 | M 4.26 | C 2.51 | Q 4.67 | N 4.46 | R 4.08 | G 4.73 | S 2.69 | F 3.78 | I 4.13 | L 4 | E 5.55 | A 2.86 | V 4.04 | W 3.31 | P 4.73 | K 3.85 | D 4.56
E11: G 3.45 | W 2.91 | L 2.79 | S 3.61 | P 4.21 | A 2.89 | I 3.05 | Y 3.16 | Q 3.29 | H 3.1 | M 2.78 | T 3.25 | V 2.43 | R 2.5 | F 3.43 | D 2.45 | N 2.99 | K 3.48 | C 2.87
E1: M 2.39 | L 2.29 | T 3.6 | W 3.01 | Q 2.99 | F 2.21 | Y 2.82 | D 2.65 | K 3.13 | V 3.57 | A 3.19 | H 2.66 | G 4.65 | N 2.75 | S 2.87 | P 4.81 | R 3.51 | C 3.12 | I 3.59
L2: I 2.19 | H 4.51 | W 3.96 | N 5.12 | T 4.71 | V 1.95 | F 4.29 | A 4.75 | P 5.74 | R 3.94 | D 5.49 | S 5.39 | C 3.5 | K 5.08 | M 2.84 | G 5.23 | Q 3.88 | E 5.33 | Y 4.18
E8: T 3.46 | K 4.06 | V 3.43 | S 3.69 | A 2.49 | D 2.69 | Y 3.68 | F 3.52 | L 3.6 | H 3.31 | N 3.46 | C 3.4 | M 3.32 | G 3.09 | Q 3.34 | W 2.21 | R 4.32 | P 4.31 | I 3.39
S10: E 2.15 | K 3 | W 2.9 | A 2.23 | D 2.53 | V 3.62 | G 3 | F 2.65 | N 3 | C 3.2 | I 3.13 | Q 2.68 | L 2.57 | Y 2.35 | R 2.91 | T 2.59 | H 2.82 | P 4.98 | M 2.12
R7: L 2.68 | Q 2.4 | K 2.44 | P 4.86 | G 2.2 | M 2.63 | C 2.97 | V 2.46 | N 2.58 | D 2.95 | I 3.2 | H 3.27 | Y 2.81 | W 2.84 | F 2.44 | A 2.55 | S 2.49 | E 2.46 | T 3.51

Variants of: B2
Assay: as above
Settings: c terminus: a fixed tail appended

Protein stability index: each site, then its substitutions
I6: D 1.8 | N 2.4
D4: G 1.65
A10: T 2.17
S13: W 1.55 | I 1.41 | G 2.42
I7: V 1.1
Q14: P 2.09
S21: N 3.04
N18: I 2.43
V8: D 2.09 | P 1.31
V22: F 2.52
R19: P 3.09
Q11: L 3.05 | K 2.89
L5: E 2.95
N2: L 2.99
S12: M 2.99 | G 2.1 | L 3.9
